Experimental data reported in patent US20090202499A1 (University of California, published 2009).

Columns and labels:
[1] = molecular target: T1, purified HLA-B*0801 (human); assay: competition radioimmunoassay on purified HLA, radiolabeled standard peptide
T1 construct: Purified MHC class I molecule incubated with human b2m; not officially part of the HLA-B7 supertype
From the text: (§1) Supertype analysis. […] Under the conditions utilized, where [label]<[MHC] and IC₅₀≧[MHC], the measured IC₅₀ values are reasonable approximations of the true Kd values.

[2] = molecular target: T2, purified HLA-B*0702 (human); assay: as above
T2 construct: Purified MHC class I molecule incubated with human b2m; complexes captured with W6/32 antibody; also called HLA-B7; immobilized purified HLA-B7 molecule
From the text: as §1

[3] = molecular target: T3, purified HLA-B*5301 (human); assay: as above
T3 construct: Purified MHC class I molecule incubated with human b2m
From the text: as §1

[4] = molecular target: T2, purified HLA-B*0702; assay: competition solid-phase radioimmunoassay on purified HLA-B7, radiolabeled standard peptide
From the text: Next, we assessed the actual binding avidity for HLA-B7 (HLA-B*0702). Two independent assays were used: binding stabilization assay on T2-B7 cells by flow cytometry (12) and a competitive solid-phase radioimmunoassay on immobilized purified HLA-B7 molecule (35).

[5] = molecular target: T4, purified HLA-B*5101 (human); assay: competition radioimmunoassay on purified HLA, radiolabeled standard peptide
T4 construct: Purified MHC class I molecule incubated with human b2m
From the text: as §1

[6] = molecular target: T5, purified HLA-B*5401 (human); assay: as above
T5 construct: Purified MHC class I molecule incubated with human b2m; also called B*54011
From the text: as §1

[7] = molecular target: T6, purified HLA-B*3501 (human); assay: as above
T6 construct: Purified MHC class I molecule incubated with human b2m
From the text: as §1

Binder | IC50 [1] [nM] | IC50 [2] [nM] | IC50 [3] [nM] | IC50 [4] [nM] | IC50 [5] [nM] | IC50 [6] [nM] | IC50 [7] [nM]
LPGTTLTAL (Synthetic 9mer peptide of human telomerase reverse transcriptase) [hTRT peptide p1107 (LPGTTLTAL)] | 192 | 0.96 | 120 | 0.96 |  |  | 
LPSDFKTIL (Synthetic 9mer peptide of human telomerase reverse transcriptase) [hTRT peptide p1123 (LPSDFKTIL)] | 74 | 11 | 2.4 | 11 | 1620 | 19900 | 5
RPSFLLSSL (Synthetic 9mer peptide of human telomerase reverse transcriptase) [hTRT peptide p342 (RPSFLLSSL)] |  |  |  |  |  | 12600 | 
DPRRLVQLL (Synthetic 9mer peptide of human telomerase reverse transcriptase) [hTRT peptide p444 (DPRRLVQLL)] |  |  |  |  |  | 21900 | 
FVRACLRRL (Synthetic 9mer peptide of human telomerase reverse transcriptase) [hTRT peptide p464 (FVRACLRRL)] | 123 | 4.1 |  | 4.1 |  | 18800 | 
AGRNMRRKL (Synthetic 9mer peptide of human telomerase reverse transcriptase) [hTRT peptide p966 (AGRNMRRKL)] |  |  |  |  |  | 34100 | 
